Data on one molecule can be found in patent US20150355199A1 (ROCHE DIAGNOSTICS OPERATIONS, published 2015).

For experiment [1], the target named is T1, native human complement factor H (CFH) (human, UniProt P08603 19-1231).
T1 construct: Native CFH; also called native CFH; serum-purified CFH
The experiment is described as follows: SPR (BiaCore), antibody captured by rabbit anti-mouse IgG on CM5 chip, antigen in solution. The method, then: (§1) The antibodies MAB<CFH/CFHR1>M-L20/3, MAB<CFHR1>M-442127, MAB<CFHR1>M-4.1.3 and MAB<CFHR1>M-5.1.5 were analyzed on the BiaCore. The chip CM5 coated with a rabbit anti-Mouse IgG was used to bind the purified monoclonal mouse antibodies. In the next step native CFH or the recombinant CFHR1, CFHR2, CFHR3, CFHR4B or CFHR5 proteins according to SEQ ID No.: 9 to 13 were added to determine the binding affinities of the different antibodies.
For orientation: Surface plasmon resonance follows binding to a sensor surface in real time, without labels.

For experiment [2], the target named is T2, CFHR5-GS-Avi-GS-His8 (human, UniProt Q9BXR6 19-569).
T2 construct: Tagged recombinant protein from HEK293 cells; also called recombinant CFHR5
T2 sequence: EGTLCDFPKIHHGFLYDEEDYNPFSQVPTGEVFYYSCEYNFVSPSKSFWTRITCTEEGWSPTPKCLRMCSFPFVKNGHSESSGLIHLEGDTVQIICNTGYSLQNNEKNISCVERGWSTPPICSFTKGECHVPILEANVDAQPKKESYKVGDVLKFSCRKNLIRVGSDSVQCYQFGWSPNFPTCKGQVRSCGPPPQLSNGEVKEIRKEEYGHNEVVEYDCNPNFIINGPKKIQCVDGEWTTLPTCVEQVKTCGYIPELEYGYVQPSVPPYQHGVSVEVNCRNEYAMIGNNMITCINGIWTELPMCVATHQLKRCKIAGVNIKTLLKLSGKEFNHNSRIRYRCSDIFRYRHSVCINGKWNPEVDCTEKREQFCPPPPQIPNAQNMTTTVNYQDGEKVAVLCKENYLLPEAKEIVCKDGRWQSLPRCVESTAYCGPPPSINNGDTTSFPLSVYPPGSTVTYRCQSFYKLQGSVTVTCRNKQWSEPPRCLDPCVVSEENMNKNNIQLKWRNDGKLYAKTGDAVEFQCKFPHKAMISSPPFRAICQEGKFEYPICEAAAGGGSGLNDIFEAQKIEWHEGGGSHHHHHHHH
The experiment is described as above. The method, then: as §1

Experiment [3] deals with T3, recombinant CFHR1-1-5 (tag-less, full-length mature human complement factor H-related protein 1) (human, UniProt Q03591 19-330).
T3 construct: also called recCFHR1
T3 sequence: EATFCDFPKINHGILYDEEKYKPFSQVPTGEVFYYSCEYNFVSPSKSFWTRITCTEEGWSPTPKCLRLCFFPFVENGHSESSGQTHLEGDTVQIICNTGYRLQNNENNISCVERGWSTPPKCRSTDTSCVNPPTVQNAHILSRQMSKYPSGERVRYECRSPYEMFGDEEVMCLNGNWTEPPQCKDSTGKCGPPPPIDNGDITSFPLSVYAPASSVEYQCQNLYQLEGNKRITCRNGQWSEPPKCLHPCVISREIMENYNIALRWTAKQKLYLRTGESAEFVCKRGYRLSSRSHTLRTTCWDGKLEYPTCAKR
The description is as above. The method, then: as §1

The target of experiment [4] is T4, CFHR4-GS-Avi-GS-His8 (CFHR4 Variant B) (human).
T4 construct: Tagged recombinant protein from HEK293 cells; also called CFHR4B; recombinant CFHR4B
T4 chain: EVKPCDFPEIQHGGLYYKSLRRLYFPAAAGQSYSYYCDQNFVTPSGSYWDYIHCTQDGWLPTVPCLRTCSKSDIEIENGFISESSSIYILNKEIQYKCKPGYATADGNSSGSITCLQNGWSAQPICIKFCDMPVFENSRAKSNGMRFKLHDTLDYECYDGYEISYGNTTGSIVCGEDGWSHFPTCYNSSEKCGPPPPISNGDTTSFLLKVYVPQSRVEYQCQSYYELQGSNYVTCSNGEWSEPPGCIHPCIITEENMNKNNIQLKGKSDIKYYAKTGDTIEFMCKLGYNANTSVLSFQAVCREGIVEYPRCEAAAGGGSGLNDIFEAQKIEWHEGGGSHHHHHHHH
The experiment is described as follows: SPR (BiaCore), antibody captured by rabbit anti-mouse IgG on CM5 chip; n.d. = not detectable. As to the method: as §1

In experiment [5] the target is T5, CFHL1-GS-Avi-GS-His8 (human, UniProt P08603 19-445).
T5 construct: also called complement factor H isoform 2
The description is as above. The method, then:
as §1

Experiment [6] concerns the target T6, CFHR2-GS-Avi-GS-His8 (human).
T6 construct: Tagged recombinant protein from HEK293 cells; also called recombinant CFHR2
T6 chain: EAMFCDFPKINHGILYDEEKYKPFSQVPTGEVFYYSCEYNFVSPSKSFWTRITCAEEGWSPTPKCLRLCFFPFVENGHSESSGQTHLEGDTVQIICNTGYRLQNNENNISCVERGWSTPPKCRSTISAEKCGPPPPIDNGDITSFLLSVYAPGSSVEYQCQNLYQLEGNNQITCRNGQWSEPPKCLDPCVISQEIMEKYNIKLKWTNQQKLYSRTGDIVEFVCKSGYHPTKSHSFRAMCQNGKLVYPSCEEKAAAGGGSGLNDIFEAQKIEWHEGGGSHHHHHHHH
The description is as above. As to the method:
as §1

The target of experiment [7] is T7, CFHR3-GS-Avi-GS-His8 (human, UniProt Q02985 19-330).
T7 construct: Tagged recombinant protein from HEK293 cells; also called recombinant CFHR3
T7 sequence: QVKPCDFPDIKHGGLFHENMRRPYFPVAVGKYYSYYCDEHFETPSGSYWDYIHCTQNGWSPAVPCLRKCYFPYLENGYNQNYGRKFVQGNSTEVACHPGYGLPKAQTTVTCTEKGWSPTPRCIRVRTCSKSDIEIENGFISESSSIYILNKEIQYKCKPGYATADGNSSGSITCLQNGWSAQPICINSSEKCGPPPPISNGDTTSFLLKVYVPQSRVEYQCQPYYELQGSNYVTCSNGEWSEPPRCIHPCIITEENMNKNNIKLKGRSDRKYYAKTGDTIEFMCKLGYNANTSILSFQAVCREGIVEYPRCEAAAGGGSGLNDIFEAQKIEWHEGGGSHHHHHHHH
The description is as above. As to the method:
as §1

The Kd is a measure of binding affinity in units of concentration.

B1: MAB<CFH/CFHR1>M-L20/3 (antibody, V domains shown)
VH: EVLLQQSGPELVKPGASVKIPCKASGYTFTDYNMDWVKQSHGKSLEWIGDINPNNGFTIYNQKFKGKATLTVDKSSSTAYMELRSLTSEDTAIYYCAINWDWFAYWGQGTLVTVSA
VL: DVLMTQTPLSLPVSLGDQASISCRSSQSIVHNNGNTYLEWYLLKPGQSPKLLIYKVSNRFSGVPDRFSGSGSGTDFTLKISRVEAEDLGVYYCFQGSHVPYTFGGGTKLEIKR
notes: Bought monoclonal mouse IgG; also called anti-Complement Factor H, Clone: L20/3; Thermo Scientific cat. no; GAU 020-03-02
With B1, the dissociation constant Kd in experiment [1] was 8 nM; in experiment [2], 10 nM; in experiment [3], 0.1 nM. Besides, the binding result in experiment [4], in experiment [5], in experiment [6] and in experiment [7] was “no binding” each time.
